Experimental data as given in patent US20230167458A1, “FORSKOLIN-INDUCIBLE PROMOTERS AND HYPOXIA-INDUCIBLE PROMOTERS” (ASKLEPIOS BIOPHARMACEUTICAL, INC., priority 2020, published 2023).

What was measured:
[1] = tested on: CHO-GSK1SV cell line; experiment: SEAP expression and cell number in normoxia vs 24 h hypoxia, stably transfected CHO-GS-KSV1; format: cell-based, chinese hamster; conditions: stably integrated CHO-GSK1SV
Experimental: Cell suspensions of 6×10^5 cells per mL are incubated on an orbital shaker set at 8% CO2, 20% O2, 37° C., 85% relative humidity and 140 rpm overnight. 2.86×10^7 cells were centrifuged at 200 g for 3 minutes. Media is then aspirated and cell pellet resuspended in 2 mL fresh CD-CHO media to obtain a concentration of 1.43×10^7 cells per mL. 700 μL of cell suspension was added to each of two electroporation cuvettes each containing […] of linearised DNA in 100 μL of sterile TE buffer (Thermofisher, 12090015). Each cuvette was electroporated, delivering a single pulse of 300V, […] with resistance to infinity. Immediately after delivery of pulse electroplated cells were transferred to Erlenmeyer 125 mL flask containing 20 mL of CD-CHO media pre-warmed to 37° C. Electroporated cells from two cuvettes are combined into a single 125 mL flask to generate one pool of cells. Cells are cultured on an orbital shaker set at 8% CO2, 20% 02, 37° C., 85% relative humidity and 140 rpm. Cells are transferred to fresh CD-CHO media 24 hours after transfection and cell cultures monitored and given fresh CD-CHO media every 2-4 days. Usually after about 10-14 days cell numbers will be high enough to start passaging. Cells were selected at 14 days and then expanded. Induction was performed once doubling time had returned to approx. 24 hrs. The cells assayed in this example were at passage number 15, 17, 19 and 21.
The transfected DNA was pXC-17.4 expression vector (Lonza Biologics plc) where one of the promoter constructs (RTV-015, HYBT, RTV-016, HV3C) or a control promoter (CMV-IE) have been cloned upstream of the SEAP gene, which had been cloned into the multiple cloning site within the vector expression cassette. Promoters were closed into the pXC-17.4 vector using Gibson assembly. The pXC-17.4 expression vector is designed for making stable cell lines in the CHO-GSK1SV cell line as it contains the […] gene which has been knocked out of the cell line. Therefore, selection of cells in glutamine drop-out medium will select for cells that have stably integrated the plasmid.
Stably transfected CHO-GS cells were seeded at 500,000 cells/ml and allowed to grow for 24 hrs, at this point the cells were counted and placed under hypoxic conditions as previously described. After 24 hrs, the cell numbers and the expression of SEAP was measured.
SEAP Reporter Gene Assay, chemiluminescent (Roche, CAT #11 779 842 001) was used to measured SEAP activity as per manufacturers protocol. All reagents and samples were fully pre-equilibrated at room temperature. Culture supernatant was collected from the stably transfected CHO-GS at the specific time points (0 h and 24 h). The supernatant was diluted 1:4 in dilution buffer and heat treated at 65° C. for 30 minutes. The heat-treated sample was then centrifuged for 30 s at maximum speed. 50 μl of the heat-treated sample was then added to 5 μl of inactivation buffer and incubated for 5 min at room temperature. 50 μl of substrate reagent was then added and incubated for 10 min at room temperature. The signal is then read at 477 nm and compared to a calibration curve. SEAP expression was normalized against cell number to ensure that the increase in activity was not due to increased cell numbers and was true induction. The result of this experiment can be seen in FIG. 16 and FIG. 17.

[2] = tested on: CHO-GSK1SV; experiment: Luciferase expression in normoxia vs 24 h hypoxia, transiently transfected CHO-GS suspension cells; format: cell-based, chinese hamster; conditions: transient CHO_GS
Experimental: 40 ml of cells were grown in a 250 ml vented Erlenmeyer flask (Sigma-Aldrich CLS431144) at 37° C., 20% O2, 8% CO2 with agitation at 100 rpm. Cells were seeded as at 300,000 cells/ml.
One day before transfection, the cells were counted using a haemocytometer and split to 500,000 cells/ml.
On the day of transfection, the cells are seeded to 1,000,000 cells/ml in 500 μl of appropriate medium (Thermofisher, CD-CHO 10743029) in a 24 well plate. […] of DNA per well was then added to 10 μl of OptiMem medium (Thermofisher; 11058021) and incubated for 5 minutes at room temperature.
Concurrently, 0.625 μl of Freestyle Max reagent (Thermofisher, 16447100) was made up to 10 μl by addition of OptiMem and incubated for 5 minutes at room temperature. After this incubation, both mixes were added to the same tube and incubated at room temperature for 25-30 minutes. The DNA/Max reagent mix (20 μl/well) was then added directly to the cells and the cells incubated at 37 C, 8% CO2 with agitation at 100 rpm.
The transfected DNA was one of the vectors where the promoter constructs (RTV-015, HYBT, RTV-016, HV3C) or a control promoter (CMV-IE) were used to drive luciferase expression and β-galactosidase containing pcDNA6 plasmid. The β-galactosidase containing plasmid was used as internal control for transfection efficiency (Thermofisher, V22020).
(§1) After transfection the cells were incubated for 24 hrs in normoxic conditions (20% oxygen). Induction of the promoters was assessed by using luciferase activity after 24 hrs in normoxia or hypoxia (5% oxygen, 10% carbon dioxide and 85% nitrogen). Hypoxia was achieved by gas displacement in a sealed hypoxia chamber. Luciferase activity was measured as described above.

[3] = tested on: HEK293-T; experiment: Luciferase expression in normoxia vs 24 h hypoxia, transiently transfected HEK293-T; format: cell-based, human
Experimental: HEK293-T are seeded at a density of 20%. Once they reached a confluence between 60 and 80%, the media is changed with DMEM (#21885-025—Thermo Scientific) supplemented with 10% FBS (Gibco, 26140). After 3 hours, the cells were transfected by a transfection mix. The transfection mix is prepared by adding DNA ([…] per 6 well plate) and PEI 25 kDA (#23966-1—Polyscience) in a ratio of 1:3 in sterile DPBS (#14190169—ThermoFisher Scientific). After mixing, the transfection mix is incubated at room temperature for 30 minutes and then added directly to the cells. After 16 to 18 h post transfection, the media is changed to DMEM+2% FBS. The transfected DNA was one of the vectors where the promoter constructs (RTV-015, HYBT, RTV-016, HV3C) or a control promoter (CMV-IE) were used to drive luciferase expression and β-galactosidase containing pcDNA6 plasmid. The β-galactosidase containing plasmid was used as internal control for transfection efficiency (Thermofisher, V22020).
as §1, with “chamber.” for “chamber. Luciferase activity was measured as described above.”
Luciferase activity was measured using LARII (Dual Luciferase Reporter 1000 assay system, Promega, E1980).
Media was removed from the cells at the respective time point (0, 3, 5, 24 hrs after induction). The cells were washed once in 300 μl of DPBS. Cells were lysed by adding 100 μl of passive lysis buffer to the cells and incubation with rocking for 15 minutes. The cell debris was pelleted by centrifugation of the plate at max speed in a benchtop centrifuge for 1 min. 10 μl of supernatant was pipetted into white 96-well plate and luminescence measured by addition of 50 μl of LARII substrate.
β-galactosidase activity was measured as per manufacturer's instructions (Mammalian βGalactosidase Assay Kit, 75707/75710, Thermo Scientific) using 25 μl of lysate. 25 μl of lysate was transferred into a microplate well and mixed with 25 μl of β-galactosidase Assay Reagent, equilibrated to room temperature. The mixture was incubated at 37° C. for 30 min and absorbance measured at 405 nm.
Luciferase readouts were normalised to β-galactosidase to produce normalised relative luminometer units (RLUs).

B1: HYBT: synthetic hypoxia-inducible promoter, SEQ ID NO: 84/86; 4 HRE3 elements and YB-TATA minimal promoter (nucleic acid)
DNA: GATCTTTGTATTTAATTAAGACCTTGAGTACGTGCGTCTCTGCACGTATGGCGATTAAGACCTTGAGTACGTGCGTCTCTGCACGTATGGCGATTAAGACCTTGAGTACGTGCGTCTCTGCACGTATGGCGATTAAGACCTTGAGTACGTGCGTCTCTGCACGTATGGCGATTAATCCATATGCTCTAGAGGGTATATAATGGGGGCCACTAGTCTACTACCAGAAAGCTTGGTACCGAGCTCGGATCCAGCCACC
modifications: Synp-HYBT
notes: 4 HRE3 elements and YB-TATA minimal promoter
- SEAP activity in normoxia [1]: almost no SEAP activity
- inducibility after 24 hours in hypoxia (rank) [1]: highest
- luciferase activity in normoxia [2]: almost no luciferase activity
- luciferase activity in normoxia [3]: almost no luciferase activity

B2: RTV-016: synthetic hypoxia-inducible promoter, SEQ ID NO: 82; 6 HRE2 elements spaced by 20 bp and CMV minimal promoter (nucleic acid)
DNA: CTGCACGTAGATGATGCGTAGCTAGTAGTCTGCACGTAGATGATGCGTAGCTAGTAGTCTGCACGTAGATGATGCGTAGCTAGTAGTCTGCACGTAGATGATGCGTAGCTAGTAGTCTGCACGTAGATGATGCGTAGCTAGTAGTCTGCACGTAGTAGTCGTATGCTGATGCGCAGTTAGCGTAGCTGAGGTACCGTCGACGATATCGGATCCAGGTCTATATAAGCAGAGCTCGTTTAGTGAACCGTCAGATCGCCTAGATACGCCATCCACGCTGTTTTGACCTCCATAGAAGATCGCCACC
modifications: Synp-RTV-016
notes: 6 HRE2 elements spaced by 20 bp and CMV minimal promoter
- SEAP activity in normoxia [1]: almost no SEAP activity
- luciferase activity in normoxia [2]: almost no luciferase activity
- luciferase activity in normoxia [3]: almost no luciferase activity
